Reference: US20150344570A1 (published 2015)

T1: FcγRIIa R (human, UniProt P12318 34-217)
T1 construct: extracellular domain; also called FcgRIIa R; FcγRIIa type R; not shown: His tag at the C terminus
T1 sequence (looked up): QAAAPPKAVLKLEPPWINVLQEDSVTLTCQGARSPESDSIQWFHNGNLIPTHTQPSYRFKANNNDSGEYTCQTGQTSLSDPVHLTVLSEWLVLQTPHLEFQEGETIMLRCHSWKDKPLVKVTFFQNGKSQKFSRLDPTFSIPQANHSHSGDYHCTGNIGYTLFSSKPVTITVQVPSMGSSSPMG

T2: FcγRIIb extracellular domain with C-terminal His tag (human, UniProt P31994 43-217)
T2 construct: extracellular domain; also called 2b; FcgRIIb
T2 sequence (looked up): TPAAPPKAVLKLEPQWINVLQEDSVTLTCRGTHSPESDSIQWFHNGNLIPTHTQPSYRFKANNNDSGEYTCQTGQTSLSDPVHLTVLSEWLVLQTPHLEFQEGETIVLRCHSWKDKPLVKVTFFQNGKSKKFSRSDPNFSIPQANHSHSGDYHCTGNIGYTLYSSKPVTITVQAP


What was measured:
FcγRIIa R [1] = biological target: T1, FcγRIIa R; assay: SPR (Biacore T100); He/Con_2aR divided by He/Con_2b (FcγRIIa R over FcγRIIb)
Experimental: (§1) The heterodimerized antibodies He Abs in which one of the H chains was introduced with an alteration were assayed for their binding activities to each activating FcγR and inhibitory FcγR according to the method described in Example 4. […] The activating FcγRs in FIGS. 26, 27, 28, and 29 are FcγRIa, FcγRIIa (R), FcγRIIa (H), and FcγRIIIa, respectively.
(§2) Analysis of interaction between objective antibody and the FcγR was carried out using Biacore T100 (GE Healthcare). HBS-EP+ (GE Healthcare) was used as the running buffer, and the measurement temperature was set to 25° C. Chips produced by immobilizing the antigen peptide by the amine coupling method to a Series S Sencor Chip CM5 (GE Healthcare), or alternatively, chips produced by allowing preliminarily biotinylated antigen peptides to interact with and immobilize onto a Series S Sensor Chip SA (certified) (GE Healthcare) were used. Antibodies of interest were captured onto an antigen peptide-immobilized chip, and allowed to interact to each FcγR diluted with running buffer. To regenerate and repeatedly use the chip, the antibodies captured on the chip were washed off by reacting 10 mM glycine-HCl, pH 1.5.

FcγRIIa R [2] = biological target: T1, FcγRIIa R; assay: SPR (Biacore T100), antibody captured on antigen peptide chip, FcγR as analyte; binding relative to GpH7-A5/GpH7-B3/GpL16-k0 = 100
Experimental: as §1, §2

[3] = biological target: T2, FcγRIIb extracellular domain with …; assay: SPR, binding relative to GpH7-A5/GpH7-B3/GpL16-k0 = 100
[4] = biological target: T3, FcγRIIIa extracellular domain with C-terminal His tag (human, UniProt P08637 17-208); assay: as above
T3 construct: extracellular domain; also called 3a; FcgRIIIa
T3 sequence (P08637 17-208): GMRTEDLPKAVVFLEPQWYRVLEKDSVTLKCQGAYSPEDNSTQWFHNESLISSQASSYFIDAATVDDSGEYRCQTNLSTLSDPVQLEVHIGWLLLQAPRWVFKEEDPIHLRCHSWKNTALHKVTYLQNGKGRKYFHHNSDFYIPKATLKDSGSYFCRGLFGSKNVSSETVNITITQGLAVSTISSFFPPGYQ

[5] = biological target: T3, FcγRIIIa extracellular domain with …; assay: SPR; ratio of He/Con_3a (FcγRIIIa) to He/Con_2b (FcγRIIb)
Experimental: as §1, §2

| Binder | He_2aR/2b (IIaR/IIb) (FcγRIIa R [1]) [ratio] | He/Con_2aR (IIaR binding) (FcγRIIa R [2]) | He/Con_2b [3] | He/Con_3a [4] | He_3a/2b (IIIa/IIb) [5] |
| --- | --- | --- | --- | --- | --- |
| GpH7-A5/GpH7-B3 variant G237_11K/GpL16-k0 (antibody, human IgG1, kappa, Heterodimerized anti-glypican-3 IgG1; mutation in one H chain only; also called He Ab) heavy 1: not shown heavy 2: not shown light: DIVMTQSPLSLPVTPGEPASISCQASESLVHSNRNTYLHWYLQKPGQSPQLLIYKVSNRFSGVPDRFSGSGSGTDFTLKISRVEAEDVGVYYCSQNTHVPPTFGQGTKVEIERTVAAPSVFIFPPSDEQLKSGTASVVCLLNNFYPREAKVQWKVDNALQSGNSQESVTEQDSKDSTYSLSSTLTLSKADYEKHKVYACEVTHQGLSSPVTKSFNRGEC | 1.9 | 17.1 % of control |  |  |  |
| GpH7-A5/GpH7-B3 variant G236_08L/GpL16-k0 (antibody, human IgG1, kappa, also called He Ab) heavy 1: not shown heavy 2: not shown light: DIVMTQSPLSLPVTPGEPASISCQASESLVHSNRNTYLHWYLQKPGQSPQLLIYKVSNRFSGVPDRFSGSGSGTDFTLKISRVEAEDVGVYYCSQNTHVPPTFGQGTKVEIERTVAAPSVFIFPPSDEQLKSGTASVVCLLNNFYPREAKVQWKVDNALQSGNSQESVTEQDSKDSTYSLSSTLTLSKADYEKHKVYACEVTHQGLSSPVTKSFNRGEC |  |  | 26.8 % of control | 32.5 % of control | 1.21 |
| GpH7-A5/GpH7-B3 variant G237_12R/GpL16-k0 (antibody, human IgG1, kappa, Heterodimerized anti-glypican-3 IgG1; mutation in one H chain only; also called He Ab) heavy 1: not shown heavy 2: not shown light: DIVMTQSPLSLPVTPGEPASISCQASESLVHSNRNTYLHWYLQKPGQSPQLLIYKVSNRFSGVPDRFSGSGSGTDFTLKISRVEAEDVGVYYCSQNTHVPPTFGQGTKVEIERTVAAPSVFIFPPSDEQLKSGTASVVCLLNNFYPREAKVQWKVDNALQSGNSQESVTEQDSKDSTYSLSSTLTLSKADYEKHKVYACEVTHQGLSSPVTKSFNRGEC | 2.47 | 24.2 % of control |  |  |  |
| GpH7-A5/GpH7-B3 variant L235_12R/GpL16-k0 (antibody, human IgG1, kappa, also called He Ab) heavy 1: not shown heavy 2: not shown light: DIVMTQSPLSLPVTPGEPASISCQASESLVHSNRNTYLHWYLQKPGQSPQLLIYKVSNRFSGVPDRFSGSGSGTDFTLKISRVEAEDVGVYYCSQNTHVPPTFGQGTKVEIERTVAAPSVFIFPPSDEQLKSGTASVVCLLNNFYPREAKVQWKVDNALQSGNSQESVTEQDSKDSTYSLSSTLTLSKADYEKHKVYACEVTHQGLSSPVTKSFNRGEC |  |  |  | 41.2 % of control | 4.29 |
| GpH7-A5/GpH7-B3 variant G236_12R/GpL16-k0 (antibody, human IgG1, kappa, also called He Ab) heavy 1: not shown heavy 2: not shown light: DIVMTQSPLSLPVTPGEPASISCQASESLVHSNRNTYLHWYLQKPGQSPQLLIYKVSNRFSGVPDRFSGSGSGTDFTLKISRVEAEDVGVYYCSQNTHVPPTFGQGTKVEIERTVAAPSVFIFPPSDEQLKSGTASVVCLLNNFYPREAKVQWKVDNALQSGNSQESVTEQDSKDSTYSLSSTLTLSKADYEKHKVYACEVTHQGLSSPVTKSFNRGEC |  |  | 6.8 % of control | 12.5 % of control | 1.84 |
| GpH7-A5/GpH7-B3 variant G236_05P/GpL16-k0 (antibody, human IgG1, kappa, also called He Ab) heavy 1: not shown heavy 2: not shown light: DIVMTQSPLSLPVTPGEPASISCQASESLVHSNRNTYLHWYLQKPGQSPQLLIYKVSNRFSGVPDRFSGSGSGTDFTLKISRVEAEDVGVYYCSQNTHVPPTFGQGTKVEIERTVAAPSVFIFPPSDEQLKSGTASVVCLLNNFYPREAKVQWKVDNALQSGNSQESVTEQDSKDSTYSLSSTLTLSKADYEKHKVYACEVTHQGLSSPVTKSFNRGEC |  |  | 19 % of control | 37.1 % of control | 1.95 |
| GpH7-A5/GpH7-B3 variant E269_01G/GpL16-k0 (antibody, human IgG1, kappa, also called He Ab) heavy 1: not shown heavy 2: not shown light: DIVMTQSPLSLPVTPGEPASISCQASESLVHSNRNTYLHWYLQKPGQSPQLLIYKVSNRFSGVPDRFSGSGSGTDFTLKISRVEAEDVGVYYCSQNTHVPPTFGQGTKVEIERTVAAPSVFIFPPSDEQLKSGTASVVCLLNNFYPREAKVQWKVDNALQSGNSQESVTEQDSKDSTYSLSSTLTLSKADYEKHKVYACEVTHQGLSSPVTKSFNRGEC |  |  | 51.5 % of control | 62.2 % of control | 1.21 |
| GpH7-A5/GpH7-B3 variant G236_04F/GpL16-k0 (antibody, human IgG1, kappa, also called He Ab) heavy 1: not shown heavy 2: not shown light: DIVMTQSPLSLPVTPGEPASISCQASESLVHSNRNTYLHWYLQKPGQSPQLLIYKVSNRFSGVPDRFSGSGSGTDFTLKISRVEAEDVGVYYCSQNTHVPPTFGQGTKVEIERTVAAPSVFIFPPSDEQLKSGTASVVCLLNNFYPREAKVQWKVDNALQSGNSQESVTEQDSKDSTYSLSSTLTLSKADYEKHKVYACEVTHQGLSSPVTKSFNRGEC |  |  | 39.3 % of control | 87 % of control | 2.21 |
| GpH7-A5/GpH7-B3 variant G236_20W/GpL16-k0 (antibody, human IgG1, kappa, also called He Ab; GpH7-A5/GpH7-B3-03-20W/GpL16-k0) heavy 1: not shown heavy 2: not shown light: DIVMTQSPLSLPVTPGEPASISCQASESLVHSNRNTYLHWYLQKPGQSPQLLIYKVSNRFSGVPDRFSGSGSGTDFTLKISRVEAEDVGVYYCSQNTHVPPTFGQGTKVEIERTVAAPSVFIFPPSDEQLKSGTASVVCLLNNFYPREAKVQWKVDNALQSGNSQESVTEQDSKDSTYSLSSTLTLSKADYEKHKVYACEVTHQGLSSPVTKSFNRGEC |  |  | 58.2 % of control | 135 % of control | 2.33 |
| GpH7-A5/GpH7-B3 variant G236_16H/GpL16-k0 (antibody, human IgG1, kappa, also called He Ab) heavy 1: not shown heavy 2: not shown light: DIVMTQSPLSLPVTPGEPASISCQASESLVHSNRNTYLHWYLQKPGQSPQLLIYKVSNRFSGVPDRFSGSGSGTDFTLKISRVEAEDVGVYYCSQNTHVPPTFGQGTKVEIERTVAAPSVFIFPPSDEQLKSGTASVVCLLNNFYPREAKVQWKVDNALQSGNSQESVTEQDSKDSTYSLSSTLTLSKADYEKHKVYACEVTHQGLSSPVTKSFNRGEC |  |  | 27.9 % of control | 43.1 % of control | 1.54 |
| GpH7-A5/GpH7-B3 variant G236_15Y/GpL16-k0 (antibody, human IgG1, kappa, also called He Ab) heavy 1: not shown heavy 2: not shown light: DIVMTQSPLSLPVTPGEPASISCQASESLVHSNRNTYLHWYLQKPGQSPQLLIYKVSNRFSGVPDRFSGSGSGTDFTLKISRVEAEDVGVYYCSQNTHVPPTFGQGTKVEIERTVAAPSVFIFPPSDEQLKSGTASVVCLLNNFYPREAKVQWKVDNALQSGNSQESVTEQDSKDSTYSLSSTLTLSKADYEKHKVYACEVTHQGLSSPVTKSFNRGEC |  |  | 39.5 % of control | 121 % of control | 3.06 |
| GpH7-A5/GpH7-B3 variant E269_02A/GpL16-k0 (antibody, human IgG1, kappa, also called He Ab) heavy 1: not shown heavy 2: not shown light: DIVMTQSPLSLPVTPGEPASISCQASESLVHSNRNTYLHWYLQKPGQSPQLLIYKVSNRFSGVPDRFSGSGSGTDFTLKISRVEAEDVGVYYCSQNTHVPPTFGQGTKVEIERTVAAPSVFIFPPSDEQLKSGTASVVCLLNNFYPREAKVQWKVDNALQSGNSQESVTEQDSKDSTYSLSSTLTLSKADYEKHKVYACEVTHQGLSSPVTKSFNRGEC |  |  | 49.9 % of control | 68.7 % of control | 1.38 |
| GpH7-A5/GpH7-B3 variant G236_07I/GpL16-k0 (antibody, human IgG1, kappa, also called He Ab) heavy 1: not shown heavy 2: not shown light: DIVMTQSPLSLPVTPGEPASISCQASESLVHSNRNTYLHWYLQKPGQSPQLLIYKVSNRFSGVPDRFSGSGSGTDFTLKISRVEAEDVGVYYCSQNTHVPPTFGQGTKVEIERTVAAPSVFIFPPSDEQLKSGTASVVCLLNNFYPREAKVQWKVDNALQSGNSQESVTEQDSKDSTYSLSSTLTLSKADYEKHKVYACEVTHQGLSSPVTKSFNRGEC |  |  | 31 % of control | 59.7 % of control | 1.93 |
| GpH7-A5/GpH7-B3 variant G236_03V/GpL16-k0 (antibody, human IgG1, kappa, also called He Ab) heavy 1: not shown heavy 2: not shown light: DIVMTQSPLSLPVTPGEPASISCQASESLVHSNRNTYLHWYLQKPGQSPQLLIYKVSNRFSGVPDRFSGSGSGTDFTLKISRVEAEDVGVYYCSQNTHVPPTFGQGTKVEIERTVAAPSVFIFPPSDEQLKSGTASVVCLLNNFYPREAKVQWKVDNALQSGNSQESVTEQDSKDSTYSLSSTLTLSKADYEKHKVYACEVTHQGLSSPVTKSFNRGEC |  |  | 35.3 % of control | 57.7 % of control | 1.64 |
| GpH7-A5/GpH7-B3 variant H268_06M/GpL16-k0 (antibody, human IgG1, kappa, also called He Ab) heavy 1: not shown heavy 2: not shown light: DIVMTQSPLSLPVTPGEPASISCQASESLVHSNRNTYLHWYLQKPGQSPQLLIYKVSNRFSGVPDRFSGSGSGTDFTLKISRVEAEDVGVYYCSQNTHVPPTFGQGTKVEIERTVAAPSVFIFPPSDEQLKSGTASVVCLLNNFYPREAKVQWKVDNALQSGNSQESVTEQDSKDSTYSLSSTLTLSKADYEKHKVYACEVTHQGLSSPVTKSFNRGEC |  |  | 65.7 % of control | 80.3 % of control | 1.22 |
| GpH7-A5/GpH7-B3 variant L234_03V/GpL16-k0 (antibody, human IgG1, kappa, also called He Ab) heavy 1: not shown heavy 2: not shown light: DIVMTQSPLSLPVTPGEPASISCQASESLVHSNRNTYLHWYLQKPGQSPQLLIYKVSNRFSGVPDRFSGSGSGTDFTLKISRVEAEDVGVYYCSQNTHVPPTFGQGTKVEIERTVAAPSVFIFPPSDEQLKSGTASVVCLLNNFYPREAKVQWKVDNALQSGNSQESVTEQDSKDSTYSLSSTLTLSKADYEKHKVYACEVTHQGLSSPVTKSFNRGEC |  |  | 73.1 % of control | 91.4 % of control | 1.25 |
